Experiments:
[1] = target: p150^Glued CAP-gly domain, wildtype (residues 19-107) (UniProt Q14203-1 19-107); experiment: SEC
[2] = target: p150^Glued CAP-gly domain (residues 19-107) G59A (UniProt Q14203-1 19-107, G59A); experiment: SEC
p150^Glued CAP-gly domain (residues 19-107) G59A, sequence (Q14203 19-107 G59A): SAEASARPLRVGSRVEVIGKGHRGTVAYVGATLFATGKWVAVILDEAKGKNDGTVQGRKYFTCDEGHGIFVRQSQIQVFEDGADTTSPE

p150^Glued CAP-gly domain, wildtype (residues 19-107), sequence (Q14203 19-107): as the sequence (Q14203 19-107 G59A) above, with A41G counted along it

binding result [1]: binds
binding result [2]: binds
B1: EB1 fragment (residues 194 to 268) (domain or fragment, UniProt Q15691 194-268, looked up)
chain: AELMQQVNVLKLTVEDLEKERDFYFGKLRNIELICQENEGENDPVLQRIVDILYATDEGFVIPDEGGPQEEQEEY

Reference: PMC2938955 (Biochemistry, 2010)
